Assay results published in the supplement of paper PMC9170038.

Test system: MS2 coat protein
Experiment: apparent KD of MS2 coat protein; designed switch direction (-1 OFF switch, 1 ON switch): -1; higher = weaker reporter binding
Summary of the method: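 Three titration conditions were used: no input, 200 uM small-molecule ligand, and an oligonucleotide input. In each, SNAP-549-labelled MS2 coat protein was raised from 0.7 or 1.5 nM, doubling, to 3 µM over designed RNA switches transcribed on Illumina chips by stalled E. coli RNA polymerase. Curve fits of normalised cluster fluorescence gave values whose per-design median over clusters is the apparent KD.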

[1] = input ligand: microRNA oligo, concentration not stated
[2] = Eterna round: R95, input ligand: FMN 200 uM
[3] = Eterna round: R95, input ligand: microRNA oligo, concentration not stated
[4] = Eterna round: R95, input ligand: none

Row | Sequence | apparent KD of MS2 coat protein (input ligand: FMN 200 uM) [nM] | apparent KD of MS2 coat protein (input ligand: none) [nM] | apparent KD of MS2 coat protein [1] [nM] | apparent KD of MS2 coat protein [2] [nM] | apparent KD of MS2 coat protein [3] [nM] | apparent KD of MS2 coat protein [4] [nM]
1 | GGUGAAGCAGGAUAUGUAUCGGCAUACAUGAGGAUCACCCAUGUCAUGUAGAUACCGCAUAUAGAAGGGCUUCACC [Exclusion 5 (FMN-MS2 slide v.5)] (Eterna round: R97, puzzle: Exclusion 5) | 41.1 | 16.9 |  |  |  | 
2 | AAAAACAAGCCCAUGCUCGUCUUAAGAUCGAAAGAUCAAACAUGAGGAUCACCCAUGUGCGAGCAUGGGUGAUCCUC [Sensor v2, turn off variant 2 (JL Turnoff v2 4 - MOD3)] (Eterna round: R96, puzzle: Sensor v2, turn-off variant 2) | 21.9 | 16.6 | 10.2 |  |  | 
3 | GUUUGCGCAGGAUAUACUCCUCCAUGUUAAGAGCAUGUGCGACAUGAGGAUCACCCAUGUAGAAGGGCGAGACG [Eternabot (L2) Solution 8] (Eterna round: R97, puzzle: Exclusion 2) | 194 | 345 |  |  |  | 
4 | AGCUGUGGCCGAGGAUAUCUAGCUUCAAUAACCGAAAUAUAAUCGGACAUGAGGAUCACCCAUGUAGAGAAGGCGGUCUCAGCA [Eli eng2 - 084] (Eterna round: R96, puzzle: Exclusion NG 2) |  |  | 22.3 |  |  | 
5 | GAGAAGGUAGGAUAUACGAAUAAAUAGGGUAGUAAGAAGACACAUGAGGAUCACCCAUGUAGAAGGACCAAGAG [Mat - Exclusion 2 - Mod of my Tesla design - D37] (puzzle: Exclusion 2) |  |  |  | 34.6 | 19.2 | 21.8
6 | GAAAAGUGAGGAUAUGGUAAAAGAAAAAGAAAAAAAAAACUCCAGAAGGCACAUGAGGAUCACCCAUGUAAAAG [salish99_ex4_r3_004] (puzzle: Exclusion 4) |  |  |  | 33.5 | 24.5 | 24
7 | AGUACUAUCACGAAAGUGAUAGUACAAUUGAGCUUUUGAACAUGAGGAUCACCCAUGUCCUCAUAAGCUCGUCUUAA [Mat - Sensor v2 - var 2 - Mod - D171] (Eterna round: R96, puzzle: Sensor v2, turn-off variant 2) | 28.7 | 30.5 | 496 |  |  | 
8 | AAGUCGACGGUGAGGAUAUUGGUUGAACGACAGAUUAAGAAGGUACAUGAGGAUCACCCAUGUGGGUAACGUUG [Brourd's EX4 #76] (Eterna round: R97, puzzle: Brourd's mod of Exclusion 4) | 108 | 86.2 |  |  |  | 
9 | AUAUUGUGAGGAUAUGAACUUAGUAUCGAAAGAUAGUAAGUUCAGAAGGCACAUGAGGAUCACCCAUGUUUCUC [Long static hairpin v8] (Eterna round: R97, puzzle: Exclusion 4) | 399 | 69.8 |  |  |  | 
10 | GUCGUGUUAGGAUAUGGCAACGGCUAGUAAACUAGUUGUUGUUAGAAGGAACAUGAGGAUCACCCAUGUAUGAC [-24.6, -24.1 kcal, A 30%] (Eterna round: R97, puzzle: Exclusion 4) | 98.1 | 34.4 |  |  |  | 
11 | CCGGAACAUGAGGAUCACCCAUGUCAGGAUAUGAAUAAAUCGUCGAAAGACGAUAAUCUCAGAAGGGACACCGG [Eli 4.28] (Eterna round: R97, puzzle: Exclusion 1) | 22.7 | 19.6 |  |  |  | 
12 | GUUAGUUAAGGAUAUACAGGGAGCUGCGGCGUCUCGCCGCAACAUGAGGAUCACCCAUGUAGAAGGUAGCCGUU [JL ViennaUCT Enbibi mod 8] (puzzle: Exclusion 2) |  |  |  |  | 53.2 | 
13 | CUCUUGGCAGGAUAUGCUCUCUUAGACAUGAGGAUCACCCAUGUGUUCAUUCUUUCUUUUGCAGAAGGGCCUUAAC [JR_E5_Sub046] (Eterna round: R96, puzzle: Exclusion 5) | 128 | 76.9 | 57.9 |  |  | 
14 | AGGUAACAUGAGGAUCACCCAUGUCAGGAUAUCAGUAAGAUGAGAAUAGAGUAGAGUAUGAGAAGGGACUAUAU [Excluse me! 21 - Jieux - Exclusion 1] (puzzle: Exclusion 1) |  |  |  |  | 37.4 | 
